Test results published in PMC11480844.

B1: H2-Kb / B3 (parent)
chain 1: GQQVKQSSPSLTVQEGGISILNCDYENDMFDYFAWYKKYPDNSPTLLISVRSNVDKREDGRLTVFLNKSGKHFSLHITASQPEDTAVYLCAAGNTGYQNFYFGKGTSLTVIP
chain 2: DSGVVQSPRHIIKEKGGRSVLTCIPISGHSNVVWYQQTLGKELKFLIQHYEKVERDKGFLPSRFSVQQFDDYHSEMNMSALELEDSAMYFCASSSLQGARNQAPLFGEGTRLSVL
chain 3: not shown
chain 4: IQKTPQIQVYSRHPPENGKPNILNCYVTQFHPPHIEIQMLKNGKKIPKVEMSDMSFSKDWSFYILAHTEFTPTETDTYACRVKHDSMAEPKTVYWDRDM
chain 5: SIINFEKL
B2: H2-Kb / B14 (parent)
chain 1: GEQVEQRPPHLSVREGDSAVIICTYTDPNSYYFFWYKQEPGAGLQLLMKVFSSTEINEGQGFTVLLNKKDKQLSLNLTAAHPGDSAVYFCAVSARGNMGYKLTFGTGTSLLVDP
chain 2: GGIITQTPKFLIGQEGQKLTLKCQQNFNHDTMYWYRQDSGKGLRLIYYSITENDLQKGDLSEGYDASREKKSSFSLTVTSAQKNEMAVFLCASSMGQGASDYTFGSGTRLLVI
chain 3: not shown
chain 4: B1 chain 4
chain 5: SIINFEKL
B3: H2-Kb / B2 (parent)
chain 1: GEQVEQRPPHLSVREGDSAVIICTYTDPNSYYFFWYKQEPGAGLQLLMKVFSSTEINEGQGFTVLLNKKDKQLSLNLTAAHPGDSAVYFCAVSQMSNYNVLYFGSGTKLTVEP
chain 2: EAAVTQSPRNKVAVTGGKVTLSCNQTNNHNNMYWYRQDTGHGLRLIHYSYGAGSTEKGDIPDGYKASRPSQENFSLILELATPSQTSVYFCASGTGGSGQLYFGEGSKLTVL
chain 3: not shown
chain 4: B1 chain 4
chain 5: SIINFEKL

Variants of: B1
Test: % of reporter cells activated (NFAT-GFP), raw
Settings: with B3; scale: % of reporter cells activated
Also: test concentration or dose not given here.

Ratio to parent of substitutions, site by site:
chain 5 N4: Q 0.0254, F 0.255, K 0.189, I 0.183, V 0.132, L 0.204, T 0.137, P 0.196, Y 0.0862, R 0.181, G 0.158, A 0.143, C 0.164, D 0.118, S 0.222, E 0.188, M 0.133, H 0.293, W 0.176
chain 5 E6: M 0.793, N 0.831, C 2.48, S 1.25, Y 1.97, T 1.87, L 0.766, G 1.37, D 1.39, R 0.469, Q 0.961, K 0.587, V 2.28, P 1.43, A 2.48, F 2.13, H 0.651, W 2.6, I 0.819
chain 5 I3: G 0.273, R 0.0152, P 1.7, L 1.21, F 0.216, Q 0.614, Y 0.153, W 0.28, K 0.322, C 0.787, V 0.59, E 0.956, S 1.32, A 0.585, D 0.144, N 0.35, H 0.787, T 0.509, M 1.73
chain 5 I2: G 1.01, R 0.777, F 0.945, V 1.39, Y 0.308, C 1.29, Q 0.228, L 1.35, T 2.16, H 0.323, W 0.631, P 0.386, N 0.605, A 1.67, D 1.57, M 0.465, K 0.551, E 0.706, S 1.73
chain 5 F5: A 0.437, T 0.842, P 0.228, W 0.399, C 0.411, M 0.771, K 0.121, H 0.428, R 0.0406, S 0.263, N 0.305, Y 0.918, L 0.842, E 0.207, G 0.197, D 0.272, Q 0.343, I 0.467, V 0.38
chain 5 K7: R 0.199, M 0.315, G 0.0497, F 0.28, S 0.219, Q 0.201, P 0.263, V 0.215, A 0.18, D 0.0872, W 0.634, H 0.553, T 0.253, C 0.201, I 0.37, N 0.601, L 0.488, Y 0.313, E 0.175
chain 5 L8: W 0.462, K 0.331, D 0.434, V 0.793, R 0.837, E 0.448, S 0.287, F 0.341, Y 0.619, I 0.902, G 0.264, Q 0.258, T 0.7, M 0.809, H 0.547, C 0.526, A 0.21, N 0.885, P 0.463
chain 5 S1: A 0.221, C 0.181

Variants of: B2
Test: % of reporter cells activated (NFAT-GFP), raw
Settings: with B14; scale: % of reporter cells activated

Ratio to parent of substitutions, site by site:
chain 5 F5: D 1.32, C 1.96, R 1.33, K 0.636, I 0.831, L 1.11, S 1.56, P 0.791, E 1.08, M 0.893, H 0.96, G 1.07, T 0.609, A 1.33, N 1.1, V 1.17, Y 0.578, Q 0.582, W 0.724
chain 5 I3: K 1.34, Q 1.69, T 1.47, E 1.28, S 1.6, C 1.96, H 1.78, D 1.46, Y 1.28, N 0.978, F 1, L 1.33, W 1.11, G 1.38, R 0.858, P 2, A 1.33, V 1.6, M 0.84
chain 5 L8: M 0.773, G 1.38, C 1.41, K 1.24, S 0.716, R 0.978, E 0.516, Y 1.07, N 1.16, D 1.24, T 1.38, V 0, I 1.51, A 0.609, F 0.44, H 2.84, P 1.33, W 1.11, Q 1.24
chain 5 I2: M 1.4, C 0.933, D 1.47, K 1.04, T 1.16, P 2.36, L 1.73, S 1.08, Q 1.07, N 1, F 0.849, W 0.933, A 0.778, R 1.87, V 0.52, E 0.964, G 0.907, Y 0.88, H 0.667
chain 5 E6: L 0.622, C 1.16, N 1.07, S 0.751, P 0.867, D 0.618, W 1.2, Q 0.876, G 1.08, A 0.418, I 0.729, Y 0.853, V 1.69, T 1.41, K 0.707, R 0.373, M 0.822, F 1.47, H 0.853
chain 5 N4: K 1.37, M 0.498, R 1.32, E 1.33, F 1.51, Y 0.658, V 1.42, D 1.23, A 1.32, C 0.916, H 0.911, Q 1.07, P 1.38, W 1.01, G 0.644, I 0.484, S 1.1, T 1.64, L 0.822
chain 5 S1: H 1.24, Q 0.858, N 0.231, C 1.42, W 1.04, V 8.49, F 3.07, E 0.867, D 1.38, I 0.76, P 0.751, Y 1.33, T 1.42, R 2.04, L 1.13, A 0.942, M 0.444, G 0.596, K 0.564
chain 5 K7: V 1.11, S 1.09, C 4.53, I 0.96, Q 1.23, H 0.796, W 1.26, L 1.56, E 0.622, M 0.787, A 0.907, P 1.64, R 0.667, G 0.489, D 0.791, T 1.73, F 1.42, Y 1.69, N 0.707

Variants of: B3
Test: % of reporter cells activated (NFAT-GFP), raw
Settings: with B2; scale: % of reporter cells activated

Ratio to parent: each site, then its substitutions
chain 5 L8: R 0.773, Q 2.52, P 3.65, S 1.08, Y 1.03, T 1.29, N 0.897, V 0.211, W 2.09
chain 5 N4: Q 0.259, C 0.162, L 0.503, P 0.503, S 0.422, F 0.557, Y 0.481, M 0.535, D 0.541, R 0.324, T 0.373, A 0.432, I 0.557, W 0.449, E 0.416, V 0.281, G 0.335, K 0.362, H 0.584
chain 5 S1: R 5.53, L 7.3, Q 1.77, C 0.773, N 0.465, F 4.16, Y 6.51, T 1.02, P 6.59, G 4.72, V 8.24, A 3.1, E 0.768, I 10.3, H 1.74, K 2.57, D 2.9, W 8.98, M 5.85
